{
  "source": "paper PMC10609148",
  "about": "(Molecules, 2023)",
  "details_in_all_cases": "both partners purified",
  "key": {"[1]": {"biological_target": "T1, Human Aβ(1–42)-HiLyte^TM-Fluor555 (human, UniProt P05067 672-713, HiLyte^TM-Fluor555 dye covalently bound to ASP1 (NH2-terminus amino acid))", "T1 construct": "Amyloid β peptide Aβ(1–42), human, cut product of the amyloid precursor protein; numbers count on: the Aβ peptide; source: bought: AnaSpec", "assay": "other fluorescence titration; competition: 10 nM Aβ(1–42) HiLyte-Fluor555 preincubated 15 min with rising His6, then 5 nM CaM added; attenuation of the maximum fluorescence increase; 50 mM HEPES, 100 mM KCl, 50 µM CaCl2, pH 7.05, 24–25 °C"}, "[2]": {"biological_target": "T1, Human Aβ(1–42)-HiLyte^TM-Fluor555", "assay": "other fluorescence titration; His6 added to 10 nM Aβ(1–42) HiLyte-Fluor555 in solution; increase in dye fluorescence (ex 520 nm, em 567 nm) at the end of the kinetics (2000 s); 50 mM HEPES, 100 mM KCl, 50 µM CaCl2, pH 7.05, 24–25 °C"}, "[3]": {"biological_target": "T1, Human Aβ(1–42)-HiLyte^TM-Fluor555", "assay": "other fluorescence titration; competition: 10 nM Aβ(1–42) HiLyte-Fluor555 preincubated 15 min with rising His6, then 5 nM calbindin-D28k added; attenuation of the maximum fluorescence increase; 50 mM HEPES, 100 mM KCl, 50 µM CaCl2, pH 7.05, 24–25 °C"}},
  "data": [
    {"binder": "HHHHHH (hexa-histidine; source: bought: Quimigen)", "note": "[hexa-histidine peptide (His6)]", "values": [
      {"measurement": "IC50", "setting": "[1]", "value": "~1000", "unit": "nM"},
      {"measurement": "EC50", "setting": "[2]", "value": "50 to 60", "unit": "nM"},
      {"measurement": "IC50", "setting": "[3]", "value": "~100", "unit": "nM"}
    ]}
  ]
}
